T1: extracellular domain of human LEPR (amino acids 22-839 of P48357, Isoform B) with N-terminal myc-myc tag, … (human, UniProt P48357 22-839, GPI anchor at the C-terminus)
T1 construct: also called HEK293/Mycx2-hLepR(Ecto)-GPI anchored cells
T1 sequence: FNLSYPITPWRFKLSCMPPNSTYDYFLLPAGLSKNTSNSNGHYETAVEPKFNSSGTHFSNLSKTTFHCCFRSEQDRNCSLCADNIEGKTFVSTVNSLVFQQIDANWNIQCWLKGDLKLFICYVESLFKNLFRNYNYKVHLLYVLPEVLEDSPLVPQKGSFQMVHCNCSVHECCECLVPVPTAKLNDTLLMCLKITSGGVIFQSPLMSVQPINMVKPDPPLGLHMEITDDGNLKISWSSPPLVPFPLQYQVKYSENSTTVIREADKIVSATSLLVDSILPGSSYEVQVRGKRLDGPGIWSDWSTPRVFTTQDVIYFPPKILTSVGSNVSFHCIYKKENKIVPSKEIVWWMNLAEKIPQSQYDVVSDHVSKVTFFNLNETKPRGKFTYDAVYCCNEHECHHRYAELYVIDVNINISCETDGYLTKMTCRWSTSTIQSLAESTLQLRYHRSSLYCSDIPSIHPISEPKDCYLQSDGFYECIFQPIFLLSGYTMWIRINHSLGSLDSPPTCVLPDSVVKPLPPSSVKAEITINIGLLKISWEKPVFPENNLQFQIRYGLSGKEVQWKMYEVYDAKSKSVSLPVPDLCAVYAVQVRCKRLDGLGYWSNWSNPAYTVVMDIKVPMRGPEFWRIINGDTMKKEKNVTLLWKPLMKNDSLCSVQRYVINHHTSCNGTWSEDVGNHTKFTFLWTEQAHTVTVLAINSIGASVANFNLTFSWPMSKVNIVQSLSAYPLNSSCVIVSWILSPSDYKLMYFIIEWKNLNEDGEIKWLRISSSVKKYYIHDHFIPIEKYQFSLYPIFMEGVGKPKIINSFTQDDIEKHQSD

T2: full length human LEPR (amino acids 1-1165 of P48357, Isoform B) on cells (human, UniProt P48357 22-1165)
T2 construct: also called HEK293/Stat3-luc/hLEPR-FL; HEK293/Stat3-hLEPR-FL
T2 sequence: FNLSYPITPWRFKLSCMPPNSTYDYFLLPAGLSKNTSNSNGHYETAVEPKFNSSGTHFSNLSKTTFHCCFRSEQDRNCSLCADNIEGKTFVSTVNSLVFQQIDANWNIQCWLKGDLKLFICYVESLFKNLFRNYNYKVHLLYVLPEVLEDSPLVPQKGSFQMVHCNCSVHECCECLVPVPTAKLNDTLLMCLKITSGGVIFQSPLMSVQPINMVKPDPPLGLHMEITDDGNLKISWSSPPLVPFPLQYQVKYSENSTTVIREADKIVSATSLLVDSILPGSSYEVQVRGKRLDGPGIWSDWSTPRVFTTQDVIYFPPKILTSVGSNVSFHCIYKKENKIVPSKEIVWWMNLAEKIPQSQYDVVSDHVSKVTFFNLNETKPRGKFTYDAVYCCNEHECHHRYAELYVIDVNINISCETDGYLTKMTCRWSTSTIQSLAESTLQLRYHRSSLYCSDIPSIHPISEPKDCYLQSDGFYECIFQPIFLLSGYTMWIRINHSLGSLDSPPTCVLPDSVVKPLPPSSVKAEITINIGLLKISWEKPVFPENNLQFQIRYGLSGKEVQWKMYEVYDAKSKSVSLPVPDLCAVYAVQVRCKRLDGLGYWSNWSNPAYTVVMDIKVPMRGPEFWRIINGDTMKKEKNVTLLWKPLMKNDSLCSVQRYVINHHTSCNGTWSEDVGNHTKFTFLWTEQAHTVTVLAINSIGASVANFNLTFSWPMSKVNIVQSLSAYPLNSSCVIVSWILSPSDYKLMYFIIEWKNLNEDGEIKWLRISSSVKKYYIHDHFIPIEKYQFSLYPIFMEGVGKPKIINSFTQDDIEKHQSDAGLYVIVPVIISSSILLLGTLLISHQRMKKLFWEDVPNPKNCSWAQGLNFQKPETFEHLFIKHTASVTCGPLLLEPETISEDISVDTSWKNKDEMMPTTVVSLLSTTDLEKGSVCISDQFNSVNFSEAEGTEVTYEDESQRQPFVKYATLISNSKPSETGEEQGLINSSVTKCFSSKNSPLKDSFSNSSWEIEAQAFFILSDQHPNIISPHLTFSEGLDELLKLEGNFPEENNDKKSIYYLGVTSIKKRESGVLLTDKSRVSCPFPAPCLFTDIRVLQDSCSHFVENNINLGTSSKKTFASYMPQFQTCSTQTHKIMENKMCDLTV


Key:
[1] = biological target: T1, extracellular domain of human LEPR …; assay: FACS, 70 nM Ab, HEK293/hLEPR-GPI, no Leptin
[2] = biological target: T2, full length human LEPR (amino acids …); assay: FACS, 70 nM Ab, HEK293/Stat3-luc/hLEPR-FL, no Leptin

| Binder | Binding Ratio (normalized to unstained) [1] [fold] | Binding Ratio (normalized to unstained) [2] [fold] |
| --- | --- | --- |
| H4H16650P2 (antibody, V domains shown) VH: QVQLVESGGGVVQPGKSLRLSCVASGFTFSSDAMYWVRQAPGKGLEWVAVIYYDGNYQYYEDSVKGRFTISRDNSQNTLDLQMNSLRVDDTAVYFCARLNWDYWYLDLWGRGTLVTVSS VL: not shown | 707 | 42 |
| H4H16679P2 (antibody, V domains shown) VH: QVQLVESGGGVVQPGRSLRLSCTASGFTFSSYAMYWVRQAPGKGLEWVSVIYYDGSYKYYADSVKGRFTISRDNSKNTLYLQMDSLRAEDTAVYYCASYNWNYWYFDFWGRGTLVTVSS VL: not shown | 1080 | 51 |

Next, values leading:

| Binding Ratio (normalized to unstained) [1] [fold] | Binding Ratio (normalized to unstained) [2] [fold] | Binder |
| --- | --- | --- |
| 1130 | 46 | H4H17321P2 (antibody, V domains shown) VH: QVQLVESGGGVVQPGRSLRLSCEASGFSSSDNAMYWVRQAPGKGLEWVSVIYHDGSYKYYEDSVKGRFTIARDNSKNTLYLQMNSLRAEDTAVYYCARYNWNHWYFDVWGRGTLVTVSS VL: not shown |
| 1130 | 47 | H4H17319P2 (antibody, V domains shown, also called REGN4461) VH: QVQLVESGGSVVQPGRSLRLSCAASGFTFSTYAMYWVRQTPGKGLEWVAVLYSDGSNKYYIDSVKGRFTISRDTSTNTLYLQMSSLRADDSALYYCARLNWDYWYFDLWGRGTLVTVSS VL: not shown |

Reference: patent US20190309079A1 (Regeneron, published 2019)
